{"source": "paper PMC8163987", "molecular_target": "cytoplasmic region of YhcB from Haemophilus ducreyi (residues 31 to 128) with I51M and L72M mutations (Haemophilus ducreyi) (UniProt Q7VLF5)", "test": "crystal structure; microbatch under paraffin oil, 2.0 M ammonium sulfate; SAD phasing of selenomethionine-labeled protein; 2.8 Å"}
{"substance": "cytoplasmic region of YhcB from Haemophilus ducreyi (residues 31 to 128) with I51M and L72M mutations (from UniProt Q7VLF5 31-128) (domain or fragment)", "values": [{"measurement": "stoichiometry N", "result": 4}]}
